The target of assay [1] is T1, TROP2 on NCI-H1975 and NUGC-4 tumor cells (UniProt P09758 27-323, limits assumed).
T1 construct: whole, on cells; species of the lines is not worded there; also called TROP2 on cells
T1 sequence (looked up): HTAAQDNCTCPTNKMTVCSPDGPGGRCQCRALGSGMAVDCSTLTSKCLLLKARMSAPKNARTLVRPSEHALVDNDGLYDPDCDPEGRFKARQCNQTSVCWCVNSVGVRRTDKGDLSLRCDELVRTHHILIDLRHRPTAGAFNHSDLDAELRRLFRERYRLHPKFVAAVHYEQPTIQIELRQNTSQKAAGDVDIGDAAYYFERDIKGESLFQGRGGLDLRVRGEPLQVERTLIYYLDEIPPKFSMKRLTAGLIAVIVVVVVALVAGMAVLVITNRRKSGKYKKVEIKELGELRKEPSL
As to the kind of experiment: flow cytometry on NCI-H1975 cells co-expressing PTK7 and TROP2; the single curve of the bispecific is not resolved between the two targets; anti-hIgG-Fc Alexa Fluor 647 secondary antibody, MFI [A]. On the procedure: (§1) This experiment was performed to test the binding activities of the anti-PTK7/TROP2 bispecific antibodies to different tumor cell lines. NCI-H1975 cells or NUGC-4 cells were transferred to a 96-well plate at a density of 5×10⁴ cells/well respectively. The sample antibody was added to the 96-well plate, and incubated at 4° C. for 30 min.

In assay [2] the target is T1, TROP2 on NCI-H1975 and NUGC-4 tumor …. As to the kind of experiment: flow cytometry on NUGC-4 cells (only TROP2 expression), anti-hIgG-Fc Alexa Fluor 647 secondary antibody, MFI [B]. On the procedure:
as §1
In general terms: Flow cytometry measures light scatter and fluorescence of single cells or particles in a stream.

The target of assay [3] is T2, His-tagged human TROP2 protein (human, UniProt P09758 27-274).
T2 construct: Bought protein; also called hTROP2-His; ACRO Biosystems Cat# TR2-H5223; not shown: His tag
T2 sequence (looked up): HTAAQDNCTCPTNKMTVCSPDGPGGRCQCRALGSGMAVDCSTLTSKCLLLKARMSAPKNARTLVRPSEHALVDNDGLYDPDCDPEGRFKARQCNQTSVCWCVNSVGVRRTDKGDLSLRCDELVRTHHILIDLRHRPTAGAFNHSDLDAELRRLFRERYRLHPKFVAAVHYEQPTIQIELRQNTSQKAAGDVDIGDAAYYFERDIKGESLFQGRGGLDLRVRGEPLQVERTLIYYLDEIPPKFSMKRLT
As to the kind of experiment: SPR Biacore 8K, Ab on Protein A chip. On the procedure: (§2) The affinity of the anti-PTK7/TROP2 bispecific antibodies to His-tagged human TROP2 protein (hTROP2-His, ACRO Biosystems Inc., Cat #: TR2-H5223), His-tagged […] monkey TROP2 protein (cTROP2-His, ACRO Biosystems Inc., Cat #: Cat: TR2-R52H3), His-tagged dog TROP2 protein (dTROP2-His, ACRO Biosystems Inc., Cat #: TR2-C52H4), hPTK7-His, cPTK7-His and dPTK7-His were measured by surface plasmon resonance (SPR) using Biacore™ (Biacore, INC, Piscataway N.J.) 8K biosensor equipped with pre-immobilized Protein A sensor chips.
A general note: Surface plasmon resonance follows binding to a sensor surface in real time, without labels.

The target in assay [4] is T3, His-tagged cynomolgus monkey PTK7 protein (cynomolgus monkey, UniProt A0A2K5VNI5 39-712).
T3 construct: Bought protein; also called cPTK7-His; ACRO Biosystems Cat# PT7-C52H3; not shown: His tag
T3 sequence: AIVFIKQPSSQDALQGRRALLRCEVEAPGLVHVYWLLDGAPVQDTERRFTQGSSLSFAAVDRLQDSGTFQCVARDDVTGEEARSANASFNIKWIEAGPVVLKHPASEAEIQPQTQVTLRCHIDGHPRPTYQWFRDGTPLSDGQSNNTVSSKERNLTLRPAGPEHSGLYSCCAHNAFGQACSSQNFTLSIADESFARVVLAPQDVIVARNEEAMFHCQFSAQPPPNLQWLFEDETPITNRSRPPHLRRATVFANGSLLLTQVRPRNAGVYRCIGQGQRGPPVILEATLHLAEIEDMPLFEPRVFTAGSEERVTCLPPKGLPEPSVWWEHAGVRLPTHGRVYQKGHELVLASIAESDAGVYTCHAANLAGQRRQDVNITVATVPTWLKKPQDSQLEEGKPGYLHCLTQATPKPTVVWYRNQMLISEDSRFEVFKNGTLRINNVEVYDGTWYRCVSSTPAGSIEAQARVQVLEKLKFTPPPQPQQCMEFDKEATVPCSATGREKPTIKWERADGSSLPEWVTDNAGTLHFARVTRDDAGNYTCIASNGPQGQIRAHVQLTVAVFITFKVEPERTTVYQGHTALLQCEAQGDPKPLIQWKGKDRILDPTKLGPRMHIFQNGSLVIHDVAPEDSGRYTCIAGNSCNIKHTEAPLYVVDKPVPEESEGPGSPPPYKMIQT
As to the kind of experiment: SPR Biacore 8K, Ab on Protein A chip. On the procedure:
as §2

Assay [5] addresses T4, His-tagged dog PTK7 protein (dog, UniProt Q13308 31-703 (human entry)).
T4 construct: also called dPTK7-His
T4 chain: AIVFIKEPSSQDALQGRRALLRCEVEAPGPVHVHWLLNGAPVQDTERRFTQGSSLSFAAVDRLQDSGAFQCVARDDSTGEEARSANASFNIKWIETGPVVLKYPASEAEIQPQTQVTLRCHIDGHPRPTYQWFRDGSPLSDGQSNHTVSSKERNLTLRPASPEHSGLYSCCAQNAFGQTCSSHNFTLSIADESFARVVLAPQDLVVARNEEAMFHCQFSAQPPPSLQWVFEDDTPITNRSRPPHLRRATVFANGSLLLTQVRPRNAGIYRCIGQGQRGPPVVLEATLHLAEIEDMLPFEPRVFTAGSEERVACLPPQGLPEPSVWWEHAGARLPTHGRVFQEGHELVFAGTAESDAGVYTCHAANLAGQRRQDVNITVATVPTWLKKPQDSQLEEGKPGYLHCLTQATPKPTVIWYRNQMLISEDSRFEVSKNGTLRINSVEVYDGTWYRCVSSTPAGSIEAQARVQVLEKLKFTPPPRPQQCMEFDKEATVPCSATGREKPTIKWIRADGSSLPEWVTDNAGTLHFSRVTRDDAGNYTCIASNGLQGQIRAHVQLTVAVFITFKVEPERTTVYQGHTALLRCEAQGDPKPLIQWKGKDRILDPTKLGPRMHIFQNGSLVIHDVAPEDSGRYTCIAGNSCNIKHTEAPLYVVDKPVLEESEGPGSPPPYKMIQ
As to the kind of experiment: SPR Biacore 8K, Ab on Protein A chip. On the procedure:
as §2

A word on the EC50 (read off the curve): it is the concentration giving half of the maximal effect. One may read the Kd as the concentration at which binding is half-saturated. In general, koff refers to the first-order rate constant of dissociation. As usually defined, the kon is the second-order rate constant of association.

B1: 3C4-18E9 (bispecific antibody, human IgG1, V domains shown)
VH 1: QVQLEQSRAEVKKPGESLRISCKGSGYSFTSYWISWVRQMPGKGLEWMGRIDPSDSYTNYNPSFQGHVTISADKSISTAYLQWSSLKASDTAMYYCARRDGSYFDFDYWGQGTLVTVSS
VH 2: QLQLQQSGPGLLKPSETLSLTCTVSGGSISSSYYFWGWIRQPPGKGLEWIGAIYYIGNTHYNPSLKSRVTISIDTSKNQFSLNLNSVTAADTAIYYCARYEDTWNWFDPWGQGTLVTVSS
VL: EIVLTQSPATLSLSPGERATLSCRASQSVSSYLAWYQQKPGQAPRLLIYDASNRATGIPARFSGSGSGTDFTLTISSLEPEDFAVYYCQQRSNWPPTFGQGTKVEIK
notes: which arm carries the knob is stated only for 3C4-6F7; also called anti-PTK7/TROP2 bispecific antibody 3C4-18E9
For the molecule B1, the “EC50 (read off the curve)” value in assay [1] is roughly 0.7 µg/mL; in assay [2], roughly 0.6 µg/mL. For the same molecule, the dissociation constant (Kd) turned out to be 3.03 nM in assay [3], 13.1 nM in assay [4] and 38.9 nM in assay [5]. Also, the koff in assay [3] stood at 0.00107 s⁻¹; in assay [4], 0.00167 s⁻¹; in assay [5], 0.00449 s⁻¹. Further, the kon in assay [3] was 353000 M⁻¹ s⁻¹; in assay [4], 127000 M⁻¹ s⁻¹; in assay [5], 115000 M⁻¹ s⁻¹.

The record behind these values is patent publication US20260250421A1 (BIOCYTOGEN PHARMACEUTICALS BEIJING, published 2026).
